Assay results from US6403765B1, “Truncated Apaf-1 and methods of use thereof” (Thomas Jefferson University, priority 1998, dated 2002).

Key:
T7-tagged Apaf-530 = biological target: T1, T7-tagged Apaf-530 (Homo sapiens, UniProt O14727); assay: Co-immunoprecipitation of Flag-tagged Apaf-1 variants with T7-tagged Apaf-530 in 293 cells; format: binding; conditions: anti-Flag immunoprecipitation, anti-T7 blot, 36 hours, FIG. 11
T1 construct: expressed in transfected cells; host or cells: 293 cells
T1 sequence (O14727 1-530 isoform O14727-3): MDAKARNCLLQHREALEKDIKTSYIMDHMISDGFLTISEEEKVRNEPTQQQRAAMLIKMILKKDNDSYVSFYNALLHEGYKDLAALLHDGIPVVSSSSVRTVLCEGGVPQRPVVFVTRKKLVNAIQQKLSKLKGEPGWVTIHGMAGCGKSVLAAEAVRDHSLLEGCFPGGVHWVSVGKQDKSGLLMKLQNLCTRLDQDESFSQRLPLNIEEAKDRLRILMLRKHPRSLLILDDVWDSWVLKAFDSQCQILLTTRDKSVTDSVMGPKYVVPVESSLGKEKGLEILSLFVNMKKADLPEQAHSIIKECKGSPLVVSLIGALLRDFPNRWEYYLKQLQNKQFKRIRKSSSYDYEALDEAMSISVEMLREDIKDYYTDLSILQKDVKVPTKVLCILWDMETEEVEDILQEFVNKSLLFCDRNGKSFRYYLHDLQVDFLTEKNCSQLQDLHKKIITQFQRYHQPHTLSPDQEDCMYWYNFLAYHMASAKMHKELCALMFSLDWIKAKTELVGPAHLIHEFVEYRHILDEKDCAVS
Experimental: The ability of APAF-530 to oligomerize pro-caspase-9 was tested. Co-transfection experiments in 293 cells were performed with T7-tagged Apaf-530 and different Flag-tagged Apaf-1 variants, and cell lysates were prepared and immunoprecipitated with an anti-Flag antibody. The immunoprecipitates were analyzed by Western blotting with an anti-T7 antibody.
In FIG. 11, 293 cells were co-transfected with constructs encoding T7-tagged Apaf-530 and an empty vector (lane 1) or constructs encoding Flag-tagged Apaf-1 (lane 2), Flag-tagged Apaf-530 (lane 3), Flag-tagged Apaf-530ΔCARD (lane 4) or Flag-tagged Apaf-97 (lane 5). After 36 hours, extracts were prepared and immunoprecipitated with a monoclonal antibody to the Flag epitope. The immunoprecipitates (upper panel) were analyzed by SDS-PAGE and immunoblotted with a horseradish peroxides-conjugated T7 antibody. The corresponding cellular extracts were also analyzed by SDS-PAGE and immunoblotted with a horseradish peroxides-conjugated T7 antibody (middle panel) or an anti-Flag antibody (lower panel).

procaspase-3 = biological target: T2, procaspase-3 (Homo sapiens, UniProt P42574); assay: Processing of procaspase-3 by Apaf-530-bound caspase-9; format: biochemical; conditions: Apaf-530 with non-radiolabeled WT procaspase-9, FIG. 15
T2 construct: made in house; host or cells: coupled in vitro transcription/translation in rabbit reticulocyte lysate (TNT Kit, Promega)
T2 sequence (P42574 1-277): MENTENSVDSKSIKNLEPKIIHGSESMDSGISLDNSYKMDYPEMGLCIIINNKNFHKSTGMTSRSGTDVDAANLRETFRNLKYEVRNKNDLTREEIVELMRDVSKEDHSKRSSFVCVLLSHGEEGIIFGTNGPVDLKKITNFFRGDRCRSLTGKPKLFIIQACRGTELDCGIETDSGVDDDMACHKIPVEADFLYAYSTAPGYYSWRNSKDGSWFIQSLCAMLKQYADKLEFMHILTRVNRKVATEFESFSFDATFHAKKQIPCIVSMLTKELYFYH
Experimental: (§1) To achieve this, a chimeric procaspase-3 with an N-terminal caspase-9 prodomain was constructed. Caspase-9 prodomain in the chimera may allow recruitment of the chimeric procaspase-3 to the Apaf-530-caspase-9 complex. […] In FIG. 15, ^35S-labeled chimeric procaspase-3 with an N-terminal procaspase-9 prodomain (lanes 1-4) or WT procaspase-3 (lanes 5-8) were incubated with buffer or Apaf-530 in the presence or absence of a non-radiolabeled WT procaspase-9 and analyzed by SDS-PAGE followed by autoradiography.

[1] = system: chimeric procaspase-3 with an N-terminal procaspase-9 prodomain; assay: Processing of chimeric procaspase-3 by Apaf-530-bound caspase-9; format: biochemical; conditions: Apaf-530 in the absence of procaspase-9, FIG. 15
Experimental: as §1

T7-tagged Bcl-xL = biological target: T3, T7-tagged Bcl-xL (Homo sapiens, UniProt Q07817); assay: Co-immunoprecipitation of Flag-tagged Apaf-1 variants or procaspase-9 with T7-tagged Bcl-xL in 293 cells; format: binding; conditions: anti-Flag immunoprecipitation, anti-T7 blot, 36 hours, FIG. 16
T3 construct: expressed in transfected cells; host or cells: 293 cells
Summary of the method: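 293 cells co-transfected with T7-Bcl-xL plus Flag-tagged Apaf-97, Apaf-1, Apaf-530, Apaf-530ΔCARD or procaspase-9 C287A; extracts made after 36 h. Anti-Flag monoclonal immunoprecipitation, then SDS-PAGE and immunoblot with HRP-conjugated T7 antibody; lysates also blotted with T7 and anti-Flag antibodies.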

T3 sequence (Q07817 whole entry): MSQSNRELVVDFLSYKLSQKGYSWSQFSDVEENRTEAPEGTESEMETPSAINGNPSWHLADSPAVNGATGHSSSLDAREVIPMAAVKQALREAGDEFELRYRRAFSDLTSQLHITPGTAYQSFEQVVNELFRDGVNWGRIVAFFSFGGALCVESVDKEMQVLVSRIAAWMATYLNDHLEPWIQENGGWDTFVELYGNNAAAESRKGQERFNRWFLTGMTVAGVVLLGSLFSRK

B1: Apaf-530: truncated Apaf-1 (residues 1-530) lacking its WD-40 repeats, recombinant (protein, UniProt O14727 1-530, looked up, fragment)
chain: MDAKARNCLLQHREALEKDIKTSYIMDHMISDGFLTISEEEKVRNEPTQQQRAAMLIKMILKKDNDSYVSFYNALLHEGYKDLAALLHDGIPVVSSSSGKDSVSGITSYVRTVLCEGGVPQRPVVFVTRKKLVNAIQQKLSKLKGEPGWVTIHGMAGCGKSVLAAEAVRDHSLLEGCFPGGVHWVSVGKQDKSGLLMKLQNLCTRLDQDESFSQRLPLNIEEAKDRLRILMLRKHPRSLLILDDVWDSWVLKAFDSQCQILLTTRDKSVTDSVMGPKYVVPVESSLGKEKGLEILSLFVNMKKADLPEQAHSIIKECKGSPLVVSLIGALLRDFPNRWEYYLKQLQNKQFKRIRKSSSYDYEALDEAMSISVEMLREDIKDYYTDLSILQKDVKVPTKVLCILWDMETEEVEDILQEFVNKSLLFCDRNGKSFRYYLHDLQVDFLTEKNCSQLQDLHKKIITQFQRYHQPHTLSPDQEDCMYWYNFLAYHMASAKMHKELCALMFSLDWIKAKTELVGPAHLIHEFVEYR
co-immunoprecipitation with T7-Apaf-530 (T7-tagged Apaf-530): co-immunoprecipitated | processing of WT procaspase-3 (procaspase-3): no processing of procaspase-3 was observed | processing of chimeric procaspase-3 [1]: no processing was observed | co-immunoprecipitation with Bcl-xL (T7-tagged Bcl-xL): capable of immunoprecipitating Bcl-xL
